B1: SARS2 (enzyme, Homo sapiens, UniProt Q9NP81 35-518, looked up)
chain: TTEKRNRNLLYEYAREGYSALPQLDIERFCACPEEAAHALELRKGELRSADLPAIISTWQELRQLQEQIRSLEEEKAAVTEAVRALLANQDSGEVQQDPKYQGLRARGREIRKELVHLYPREAQLEEQFYLQALKLPNQTHPDVPVGDESQARVLHMVGDKPVFSFQPRGHLEIGEKLDIIRQKRLSHVSGHRSYYLRGAGALLQHGLVNFTFNKLLRRGFTPMTVPDLLRGAVFEGCGMTPNANPSQIYNIDPARFKDLNLAGTAEVGLAGYFMDHTVAFRDLPVRMVCSSTCYRAETNTGQEPRGLYRVHHFTKVEMFGVTGPGLEQSSQLLEEFLSLQMEILTELGLHFRVLDMPTQELGLPAYRKFDIEAWMPGRGRFGEVTSASNCTDFQSRRLHIMFQTEAGELQFAHTVNATACAVPRLLIALLESNQQKDGSVLVPPALQSYLGTDRITAPTHVPLQYIGPNQPRKPGLPGQPAVS
notes: Endogenous protein found by proximity labelling/MS; also called Serine -- tRNA ligase, mitochondrial
B2: USP15 (enzyme, human, UniProt Q9Y4E8 2-981, looked up)
chain: AEGGAADLDTQRSDIATLLKTSLRKGDTWYLVDSRWFKQWKKYVGFDSWDKYQMGDQNVYPGPIDNSGLLKDGDAQSLKEHLIDELDYILLPTEGWNKLVSWYTLMEGQEPIARKVVEQGMFVKHCKVEVYLTELKLCENGNMNNVVTRRFSKADTIDTIEKEIRKIFSIPDEKETRLWNKYMSNTFEPLNKPDSTIQDAGLYQGQVLVIEQKNEDGTWPRGPSTPKSPGASNFSTLPKISPSSLSNNYNNMNNRNVKNSNYCLPSYTAYKNYDYSEPGRNNEQPGLCGLSNLGNTCFMNSAIQCLSNTPPLTEYFLNDKYQEELNFDNPLGMRGEIAKSYAELIKQMWSGKFSYVTPRAFKTQVGRFAPQFSGYQQQDCQELLAFLLDGLHEDLNRIRKKPYIQLKDADGRPDKVVAEEAWENHLKRNDSIIVDIFHGLFKSTLVCPECAKISVTFDPFCYLTLPLPMKKERTLEVYLVRMDPLTKPMQYKVVVPKIGNILDLCTALSALSGIPADKMIVTDIYNHRFHRIFAMDENLSSIMERDDIYVFEININRTEDTEHVIIPVCLREKFRHSSYTHHTGSSLFGQPFLMAVPRNNTEDKLYNLLLLRMCRYVKISTETEETEGSLHCCKDQNINGNGPNGIHEEGSPSEMETDEPDDESSQDQELPSENENSQSEDSVGGDNDSENGLCTEDTCKGQLTGHKKRLFTFQFNNLGNTDINYIKDDTRHIRFDDRQLRLDERSFLALDWDPDLKKRYFDENAAEDFEKHESVEYKPPKKPFVKLKDCIELFTTKEKLGAEDPWYCPNCKEHQQATKKLDLWSLPPVLVVHLKRFSYSRYMRDKLDTLVDFPINDLDMSEFLINPNAGPCRYNLIAVSNHYGGMGGGHYTAFAKNKDDGKWYYFDDSSVSTASEDQIVSKAAYVLFYQRQDTFSGTGFFPLDRETKGASAATGIPLESDEDSNDNDNDIENENCMHTN
notes: Endogenous protein
B3: CYLD (enzyme, Homo sapiens, UniProt Q9NQC7-2 1-953, looked up)
chain: MSSGLWSQEKVTSPYWEERIFYLLLQECSVTDKQTQKLLKVPKGSIGQYIQDRSVGHSRIPSAKGKKNQIGLKILEQPHAVLFVDEKDVVEINEKFTELLLAITNCEERFSLFKNRNRLSKGLQIDVGCPVKVQLRSGEEKFPGVVRFRGPLLAERTVSGIFFGVELLEEGRGQGFTDGVYQGKQLFQCDEDCGVFVALDKLELIEDDDTALESDYAGPGDTMQVELPPLEINSRVSLKVGETIESGTVIFCDVLPGKESLGYFVGVDMDNPIGNWDGRFDGVQLCSFACVESTILLHINDIIPESVTQERRPPKLAFMSRGVGDKGSSSHNKPKATGSTSDPGNRNRSELFYTLNGSSVDSQPQSKSKNTWYIDEVAEDPAKSLTEISTDFDRSSPPLQPPPVNSLTTENRFHSLPFSLTKMPNTNGSIGHSPLSLSAQSVMEELNTAPVQESPPLAMPPGNSHGLEVGSLAEVKENPPFYGVIRWIGQPPGLNEVLAGLELEDECAGCTDGTFRGTRYFTCALKKALFVKLKSCRPDSRFASLQPVSNQIERCNSLAFGGYLSEVVEENTPPKMEKEGLEIMIGKKKGIQGHYNSCYLDSTLFCLFAFSSVLDTVLLRPKEKNDVEYYSETQELLRTEIVNPLRIYGYVCATKIMKLRKILEKVEAASGFTSEEKDPEEFLNILFHHILRVEPLLKIRSAGQKVQDCYFYQIFMEKNEKVGVPTIQQLLEWSFINSNLKFAEAPSCLIIQMPRFGKDFKLFKKIFPSLELNITDLLEDTPRQCRICGGLAMYECRECYDDPDISAGKIKQFCKTCNTQVHLHPKRLNHKYNPVSLPKDLPDWDWRHGCIPCQNMELFAVLCIETSHYVAFVKYGKDDSAWLFFDSMADRDGGQNGFNIPQVTPCPEVGEYLKMSLEDLHSLDSRRIQGCARRLLCDAYMCMYQSPTMSLYK
notes: Endogenous protein in cell lysates; the isoform is the one matched by MS; also called Ubiquitin carboxyl-terminal hydrolase CYLD
B4: SPATA2 (other, human, UniProt Q9UM82 1-520, looked up)
chain: MGKPSSMDTKFKDDLFRKYVQFHESKVDTTTSRQRPGSDECLRVAASTLLSLHKVDPFYRFRLIQFYEVVESSLRSLSSSSLRALHGAFSMLETVGINLFLYPWKKEFRSIKTYTGPFVYYVKSTLLEEDIRAILSCMGYTPELGTAYKLRELVETLQVKMVSFELFLAKVECEQMLEIHSQVKDKGYSELDIVSERKSSAEDVRGCSDALRRRAEGREHLTASMSRVALQKSASERAAKDYYKPRVTKPSRSVDAYDSYWESRKPPLKASLSLRKEPVATDVGDDLKDEIIRPSPSLLTMASSPHGSPDVLPPASPSNGPALLRGTYFSTQDDVDLYTDSEPRATYRRQDALRPDVWLLRNDAHSLYHKRSPPAKESALSKCQSCGLSCSSSLCQRCDSLLTCPPASKPSAFPSKASTHDSLAHGASLREKYPGQTQGLDRLPHLHSKSKPSTTPTSRCGFCNRPGATNTCTQCSKVSCDACLSAYHYDPCYKKSELHKFMPNNQLNYKSTQLSHLVYR
notes: Endogenous protein in cell lysates
B5: CYP51A1 (enzyme, Homo sapiens, UniProt Q16850-2 1-404, looked up)
chain: MVGKTFTYLLGSDAAALLFNSKNEDLNAEDVYSRLTTPVFGKGVAYDVPNPVFLEQKKMLKSGLNIAHFKQHVSIIEKETKEYFESWGESGEKNVFEALSELIILTASHCLHGKEIRSQLNEKVAQLYADLDGGFSHAAWLLPGWLPLPSFRRRDRAHREIKDIFYKAIQKRRQSQEKIDDILQTLLDATYKDGRPLTDDEVAGMLIGLLLAGQHTSSTTSAWMGFFLARDKTLQKKCYLEQKTVCGENLPPLTYDQLKDLNLLDRCIKETLRLRPPIMIMMRMARTPQTVAGYTIPPGHQVCVSPTVNQRLKDSWVERLDFNPDRYLQDNPASGEKFAYVPFGAGRHRCIGENFAYVQIKTIWSTMLRLYEFDLIDGYFPTVNYTTMIHTPENPVIRYKRRSK
notes: Endogenous protein found by proximity labelling/MS; also called Lanosterol 14-alpha demethylase
B6: PTP1B (PTPN1) (enzyme, Homo sapiens, UniProt P18031 1-435, looked up)
chain: MEMEKEFEQIDKSGSWAAIYQDIRHEASDFPCRVAKLPKNKNRNRYRDVSPFDHSRIKLHQEDNDYINASLIKMEEAQRSYILTQGPLPNTCGHFWEMVWEQKSRGVVMLNRVMEKGSLKCAQYWPQKEEKEMIFEDTNLKLTLISEDIKSYYTVRQLELENLTTQETREILHFHYTTWPDFGVPESPASFLNFLFKVRESGSLSPEHGPVVVHCSAGIGRSGTFCLADTCLLLMDKRKDPSSVDIKKVLLEMRKFRMGLIQTADQLRFSYLAVIEGAKFIMGDSSVQDQWKELSHEDLEPPPEHIPPPPRPPKRILEPHNGKCREFFPNHQWVKEETQEDKDCPIKEEKGSPLNAAPYGIESMSQDTEVRSRVVGGSLRGAQAASPAKGEPSLPEKDEDHALSYWKPFLVNMCVATVLTAGAYLCYRFLFNSNT
notes: Endogenous protein in cell lysates; also called Tyrosine-protein phosphatase non-receptor type 1

Tests used:
RNF213-TurboID [1] = target: T1, RNF213-TurboID (Homo sapiens (Human), UniProt Q63HN8 1-5207); experiment: TurboID proximity biotinylation, streptavidin recovery, MS, SAINT express
T1 construct: Recombined into HeLa FlpIn-TRex RNF213-KO cells; proximity-labelling bait; also called C-Turbo; 3×-FLAG-RNF213-TurboID; not shown: 3×-FLAG tag; TurboID biotin ligase at the C-terminus
T1 sequence (Q63HN8 whole entry N1045D): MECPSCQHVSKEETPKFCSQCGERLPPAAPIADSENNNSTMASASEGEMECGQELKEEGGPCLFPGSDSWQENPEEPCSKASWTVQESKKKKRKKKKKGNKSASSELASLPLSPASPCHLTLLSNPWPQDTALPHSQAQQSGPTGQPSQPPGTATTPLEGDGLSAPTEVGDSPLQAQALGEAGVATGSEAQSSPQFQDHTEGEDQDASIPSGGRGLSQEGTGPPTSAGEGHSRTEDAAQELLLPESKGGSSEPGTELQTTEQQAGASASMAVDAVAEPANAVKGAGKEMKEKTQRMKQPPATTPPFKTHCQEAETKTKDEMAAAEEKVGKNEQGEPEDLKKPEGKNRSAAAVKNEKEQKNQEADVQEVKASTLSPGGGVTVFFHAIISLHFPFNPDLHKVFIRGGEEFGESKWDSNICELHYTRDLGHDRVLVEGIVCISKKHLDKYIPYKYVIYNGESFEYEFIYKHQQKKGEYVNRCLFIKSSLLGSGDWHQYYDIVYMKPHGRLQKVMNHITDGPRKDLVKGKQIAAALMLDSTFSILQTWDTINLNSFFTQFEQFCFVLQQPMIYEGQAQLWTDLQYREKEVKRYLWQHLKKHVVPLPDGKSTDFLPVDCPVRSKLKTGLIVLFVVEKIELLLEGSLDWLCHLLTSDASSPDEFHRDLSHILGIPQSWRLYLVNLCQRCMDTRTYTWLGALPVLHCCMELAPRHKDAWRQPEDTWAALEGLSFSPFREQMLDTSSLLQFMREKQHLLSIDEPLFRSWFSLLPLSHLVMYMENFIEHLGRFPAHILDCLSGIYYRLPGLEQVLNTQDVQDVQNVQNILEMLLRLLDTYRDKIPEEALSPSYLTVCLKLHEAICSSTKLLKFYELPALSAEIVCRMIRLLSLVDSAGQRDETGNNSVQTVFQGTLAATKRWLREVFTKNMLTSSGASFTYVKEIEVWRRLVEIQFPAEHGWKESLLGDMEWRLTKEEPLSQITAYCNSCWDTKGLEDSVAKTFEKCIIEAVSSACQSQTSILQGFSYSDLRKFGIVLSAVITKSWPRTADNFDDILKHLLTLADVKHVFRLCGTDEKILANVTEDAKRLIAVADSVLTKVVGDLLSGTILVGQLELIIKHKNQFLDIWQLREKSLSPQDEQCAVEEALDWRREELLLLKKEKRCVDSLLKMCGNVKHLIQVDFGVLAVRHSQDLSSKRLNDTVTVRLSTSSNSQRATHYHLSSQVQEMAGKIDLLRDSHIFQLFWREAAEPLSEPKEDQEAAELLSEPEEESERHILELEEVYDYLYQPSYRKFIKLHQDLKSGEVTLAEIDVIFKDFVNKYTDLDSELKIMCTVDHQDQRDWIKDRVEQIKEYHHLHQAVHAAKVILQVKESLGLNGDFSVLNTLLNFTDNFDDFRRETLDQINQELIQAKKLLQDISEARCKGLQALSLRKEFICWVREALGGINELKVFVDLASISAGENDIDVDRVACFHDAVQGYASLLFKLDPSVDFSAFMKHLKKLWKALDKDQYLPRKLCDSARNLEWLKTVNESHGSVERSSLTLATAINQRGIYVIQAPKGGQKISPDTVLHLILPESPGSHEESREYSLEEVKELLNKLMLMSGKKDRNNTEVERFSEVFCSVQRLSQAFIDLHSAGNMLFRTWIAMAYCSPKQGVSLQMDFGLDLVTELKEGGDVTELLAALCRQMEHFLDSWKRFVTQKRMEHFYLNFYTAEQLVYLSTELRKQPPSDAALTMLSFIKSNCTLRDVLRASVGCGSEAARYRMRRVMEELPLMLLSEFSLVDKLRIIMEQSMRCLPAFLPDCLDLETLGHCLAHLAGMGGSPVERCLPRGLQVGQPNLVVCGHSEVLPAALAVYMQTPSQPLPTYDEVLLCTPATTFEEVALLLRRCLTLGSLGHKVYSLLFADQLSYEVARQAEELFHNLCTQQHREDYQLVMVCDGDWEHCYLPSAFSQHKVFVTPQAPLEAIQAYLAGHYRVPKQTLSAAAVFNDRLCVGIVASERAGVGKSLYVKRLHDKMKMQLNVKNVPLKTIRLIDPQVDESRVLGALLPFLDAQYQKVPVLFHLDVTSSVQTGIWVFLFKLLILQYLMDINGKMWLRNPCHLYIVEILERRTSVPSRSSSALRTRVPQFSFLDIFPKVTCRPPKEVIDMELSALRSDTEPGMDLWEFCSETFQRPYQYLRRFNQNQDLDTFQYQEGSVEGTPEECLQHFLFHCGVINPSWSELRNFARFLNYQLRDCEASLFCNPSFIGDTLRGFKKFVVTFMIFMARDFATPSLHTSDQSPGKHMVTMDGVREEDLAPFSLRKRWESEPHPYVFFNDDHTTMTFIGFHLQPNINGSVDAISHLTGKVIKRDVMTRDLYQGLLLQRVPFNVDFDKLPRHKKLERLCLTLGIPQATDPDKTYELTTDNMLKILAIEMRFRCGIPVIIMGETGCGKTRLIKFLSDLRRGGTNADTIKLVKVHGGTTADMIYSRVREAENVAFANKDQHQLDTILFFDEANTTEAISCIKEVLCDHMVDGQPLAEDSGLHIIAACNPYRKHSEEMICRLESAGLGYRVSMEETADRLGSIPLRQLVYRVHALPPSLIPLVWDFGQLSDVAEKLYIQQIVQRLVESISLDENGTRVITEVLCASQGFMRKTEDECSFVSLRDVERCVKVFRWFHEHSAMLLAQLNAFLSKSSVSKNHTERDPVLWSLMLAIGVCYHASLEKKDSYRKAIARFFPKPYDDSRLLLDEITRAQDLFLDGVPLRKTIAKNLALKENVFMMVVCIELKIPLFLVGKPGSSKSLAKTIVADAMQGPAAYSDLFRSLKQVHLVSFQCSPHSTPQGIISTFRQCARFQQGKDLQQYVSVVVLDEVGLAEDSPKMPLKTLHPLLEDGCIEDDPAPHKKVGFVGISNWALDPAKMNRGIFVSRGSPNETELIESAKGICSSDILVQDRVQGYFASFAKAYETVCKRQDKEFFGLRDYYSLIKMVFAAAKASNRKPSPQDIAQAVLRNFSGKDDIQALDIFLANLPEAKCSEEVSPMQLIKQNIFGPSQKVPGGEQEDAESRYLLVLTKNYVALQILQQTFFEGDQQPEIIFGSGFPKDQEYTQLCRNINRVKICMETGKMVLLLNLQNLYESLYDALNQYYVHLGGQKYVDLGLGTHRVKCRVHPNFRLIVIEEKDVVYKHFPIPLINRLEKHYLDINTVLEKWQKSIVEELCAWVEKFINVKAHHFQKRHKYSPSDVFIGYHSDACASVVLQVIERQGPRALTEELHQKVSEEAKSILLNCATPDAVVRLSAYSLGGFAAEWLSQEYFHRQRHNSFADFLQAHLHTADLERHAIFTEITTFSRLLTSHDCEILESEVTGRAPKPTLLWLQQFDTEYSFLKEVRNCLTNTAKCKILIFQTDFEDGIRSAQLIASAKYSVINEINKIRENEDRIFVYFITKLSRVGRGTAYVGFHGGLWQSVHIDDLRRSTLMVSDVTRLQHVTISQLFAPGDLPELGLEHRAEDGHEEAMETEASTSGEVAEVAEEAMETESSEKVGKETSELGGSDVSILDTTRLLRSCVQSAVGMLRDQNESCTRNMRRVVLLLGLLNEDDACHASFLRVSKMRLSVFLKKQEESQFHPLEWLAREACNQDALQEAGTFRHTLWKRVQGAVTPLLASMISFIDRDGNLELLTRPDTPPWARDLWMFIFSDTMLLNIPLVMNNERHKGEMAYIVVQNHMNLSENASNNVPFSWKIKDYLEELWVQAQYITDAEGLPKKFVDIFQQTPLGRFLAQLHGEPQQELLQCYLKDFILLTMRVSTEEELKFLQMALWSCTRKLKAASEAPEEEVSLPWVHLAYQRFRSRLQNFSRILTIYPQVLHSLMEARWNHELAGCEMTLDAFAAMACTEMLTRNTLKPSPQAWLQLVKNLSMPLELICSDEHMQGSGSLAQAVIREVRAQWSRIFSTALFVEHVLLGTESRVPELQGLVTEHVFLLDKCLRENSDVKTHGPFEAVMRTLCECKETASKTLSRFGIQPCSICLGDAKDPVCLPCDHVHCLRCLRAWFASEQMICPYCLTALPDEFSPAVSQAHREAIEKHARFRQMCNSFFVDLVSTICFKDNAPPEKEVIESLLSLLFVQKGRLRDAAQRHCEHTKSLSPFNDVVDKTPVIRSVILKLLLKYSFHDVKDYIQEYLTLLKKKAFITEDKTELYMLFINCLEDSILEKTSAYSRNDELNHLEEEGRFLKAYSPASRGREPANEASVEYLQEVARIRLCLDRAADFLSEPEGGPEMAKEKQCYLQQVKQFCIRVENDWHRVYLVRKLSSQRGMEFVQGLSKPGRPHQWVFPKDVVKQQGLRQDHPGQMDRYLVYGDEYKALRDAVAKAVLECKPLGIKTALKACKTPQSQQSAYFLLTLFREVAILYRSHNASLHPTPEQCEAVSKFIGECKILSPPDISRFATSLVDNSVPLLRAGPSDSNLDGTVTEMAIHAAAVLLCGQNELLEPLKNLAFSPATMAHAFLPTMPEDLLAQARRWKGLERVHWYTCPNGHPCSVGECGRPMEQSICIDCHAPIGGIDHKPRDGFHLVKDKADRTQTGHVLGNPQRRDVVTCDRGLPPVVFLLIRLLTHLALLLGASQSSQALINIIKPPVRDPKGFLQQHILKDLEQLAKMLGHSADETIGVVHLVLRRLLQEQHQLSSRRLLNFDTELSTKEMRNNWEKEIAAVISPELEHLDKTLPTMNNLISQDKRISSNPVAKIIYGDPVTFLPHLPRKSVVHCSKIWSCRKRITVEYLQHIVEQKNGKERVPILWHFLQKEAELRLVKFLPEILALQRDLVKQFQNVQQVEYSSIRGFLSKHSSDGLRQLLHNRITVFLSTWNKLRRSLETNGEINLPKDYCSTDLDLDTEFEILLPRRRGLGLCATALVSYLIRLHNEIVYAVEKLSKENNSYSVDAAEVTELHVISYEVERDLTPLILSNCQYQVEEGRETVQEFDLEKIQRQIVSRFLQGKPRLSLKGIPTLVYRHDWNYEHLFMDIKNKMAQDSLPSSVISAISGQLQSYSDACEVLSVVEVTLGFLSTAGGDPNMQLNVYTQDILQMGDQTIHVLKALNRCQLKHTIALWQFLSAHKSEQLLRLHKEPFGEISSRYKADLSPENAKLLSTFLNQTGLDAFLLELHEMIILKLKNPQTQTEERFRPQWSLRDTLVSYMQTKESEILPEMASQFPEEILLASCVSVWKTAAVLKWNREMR
Source text: Proteins were ranked as potential binding partners by using the SAINT express algorithm³⁶ Immunoblotting (FIG. 9A) and silver staining (FIG. 9B) confirmed that similar amounts of each sample were submitted for analysis. Relatively few proteins labelled by N-Turbo were labelled to an extent greater than their labeling by Control-Turbo (FIG. 9C). […] Among the other top candidates were the major K63-deubiquitinase and NF-κB regulator CYLD and its interacting protein SPATA2 (FIG. 2B, orange-colored arrows). […] Other top C-Turbo interactors included proteins involved in VEGF signaling, which is induced in hypoxia (FLII, MYOF^{39,40}), inflammation and atherosclerosis (MAP4K4, SPTLC1^{41,42}), lipotoxicity (SPTLC1, ALDH1B1^{43,44}), ischemia response (CPEB4⁴⁵), and stroke (SARS2⁴⁶). Top N-Turbo interactors included CYP51A1, which plays a crucial role in cholesterol metabolism and atherosclerosis⁴⁷.
Cells were cultured in standard media but with 10% tetracycline (Tet)-free FBS (Clonetech) for at least 1 week. Tet-free/biotin-free FBS was generated by incubating Tet-free FBS with sterile streptavidin beads overnight followed by centrifugation to remove the beads. N-Turbo, C-Turbo, and Turbo proteins were induced by adding 1 μg/ml Dox to cells for 36 hours. For the last ten min. of incubation, 500 μM of biotin was added to the medium. Labelling reactions was terminated by removing the medium and adding ice-cold PBS to plates, which were kept on ice. Lysates were collected in RIPA buffer without Na-deoxycholate, and biotin-labelled proteins were collected by incubating with high-capacity streptavidin agarose beads for 4 hours at 4° C.

RNF213-TurboID [2] = target: T1, RNF213-TurboID; experiment: TurboID proximity biotinylation, streptavidin recovery, MS, SAINT express (FIG. 2B)
Experimental: RNF213-interacting proteins were identified to evaluate how RNF213 regulates hypoxia sensitivity (FIG. 2A). TurboID-RNF213 (“N-Turbo”), RNF213-TurboID (“C-Turbo”), or TurboID alone (Control Turbo) were recombined into HeLa FlpIn-TRex RNF213-KO cells. These cells were labelled with biotin for 10 min., and biotinylated proteins were recovered on streptavidin, digested with trypsin, and analyzed by MS (FIG. 2A). Proteins were ranked as potential binding partners by using the SAINT express algorithm³⁶ Immunoblotting (FIG. 9A) and silver staining (FIG. 9B) confirmed that similar amounts of each sample were submitted for analysis. Relatively few proteins labelled by N-Turbo were labelled to an extent greater than their labeling by Control-Turbo (FIG. 9C). […] Among the other top candidates were the major K63-deubiquitinase and NF-κB regulator CYLD and its interacting protein SPATA2 (FIG. 2B, orange-colored arrows). […] Other top C-Turbo interactors included proteins involved in VEGF signaling, which is induced in hypoxia (FLII, MYOF^{39,40}), inflammation and atherosclerosis (MAP4K4, SPTLC1^{41,42}), lipotoxicity (SPTLC1, ALDH1B1^{43,44}), ischemia response (CPEB4⁴⁵), and stroke (SARS2⁴⁶). Top N-Turbo interactors included CYP51A1, which plays a crucial role in cholesterol metabolism and atherosclerosis⁴⁷.
Cells were cultured in standard media but with 10% tetracycline (Tet)-free FBS (Clonetech) for at least 1 week. Tet-free/biotin-free FBS was generated by incubating Tet-free FBS with sterile streptavidin beads overnight followed by centrifugation to remove the beads. N-Turbo, C-Turbo, and Turbo proteins were induced by adding 1 μg/ml Dox to cells for 36 hours. For the last ten min. of incubation, 500 μM of biotin was added to the medium.

3×-FLAG-RNF213 = target: T2, 3×-FLAG-RNF213 (Homo sapiens (Human), UniProt Q63HN8 1-5207, phosphotyrosine at Y1275 (found by MS in cells; phosphorylated by ABL1 in vitro)); experiment: co-immunoprecipitation/immunoblot (FIG. 2D)
T2 construct: Expressed from pcDNA5-3x-FLAG-RNF213; also called WT-RNF213; wild type RNF213; not shown: 3×-FLAG tag

TurboID-RNF213 = target: T3, TurboID-RNF213 (Homo sapiens (Human), UniProt Q63HN8 1-5207); experiment: TurboID proximity biotinylation, streptavidin recovery, MS, SAINT express (FIG. 9C)
T3 construct: Recombined into HeLa FlpIn-TRex RNF213-KO cells; proximity-labelling bait; also called N-Turbo; not shown: TurboID biotin ligase at the N-terminus
Experimental: RNF213-interacting proteins were identified to evaluate how RNF213 regulates hypoxia sensitivity (FIG. 2A). TurboID-RNF213 (“N-Turbo”), RNF213-TurboID (“C-Turbo”), or TurboID alone (Control Turbo) were recombined into HeLa FlpIn-TRex RNF213-KO cells. These cells were labelled with biotin for 10 min., and biotinylated proteins were recovered on streptavidin, digested with trypsin, and analyzed by MS (FIG. 2A). Proteins were ranked as potential binding partners by using the SAINT express algorithm³⁶ Immunoblotting (FIG. 9A) and silver staining (FIG. 9B) confirmed that similar amounts of each sample were submitted for analysis. Relatively few proteins labelled by N-Turbo were labelled to an extent greater than their labeling by Control-Turbo (FIG. 9C). […] Among the other top candidates were the major K63-deubiquitinase and NF-κB regulator CYLD and its interacting protein SPATA2 (FIG. 2B, orange-colored arrows). […] Other top C-Turbo interactors included proteins involved in VEGF signaling, which is induced in hypoxia (FLII, MYOF^{39,40}), inflammation and atherosclerosis (MAP4K4, SPTLC1^{41,42}), lipotoxicity (SPTLC1, ALDH1B1^{43,44}), ischemia response (CPEB4⁴⁵), and stroke (SARS2⁴⁶). Top N-Turbo interactors included CYP51A1, which plays a crucial role in cholesterol metabolism and atherosclerosis⁴⁷. […]

Binder | binding result (RNF213-TurboID [2]) | binding result (3×-FLAG-RNF213) | other results
B1 |  |  | binding result (RNF213-TurboID [1]): binds
B2 | binds |  | 
B3 | binds | binds | 
B4 | binds | binds | 
B5 |  |  | binding result (TurboID-RNF213): binds
B6 | binds |  | 
